Assay results as given in article PMC11300487, “C-phycocyanin reinforces autophagy to block pulmonary fibrogenesis by inhibiting lncIAPF biogenesis” (Archives of Pharmacal Research, 2024).

Target: T1, C-phycocyanin (Spirulina platensis, UniProt P72509 1-162; P72508 1-172)
T1 construct: C-phycocyanin alpha subunit, Spirulina platensis; C-phycocyanin beta subunit, Spirulina platensis; the source organism is told in the introduction only; also called C-PC; source: bought: Aladdin, Shanghai
Experiment: SPR; equilibrium dissociation constant; who was immobilised and the conditions not given
Conditions: both partners purified

B1: activating transcription factor 3 (natural protein, UniProt P18847 1-181, looked up)
chain: MMLQHPGQVSASEVSASAIVPCLSPPGSLVFEDFANLTPFVKEELRFAIQNKHLCHRMSSALESVTVSDRPLGVSITKAEVAPEEDERKKRRRERNKIAAAKCRNKKKEKTECLQKESEKLESVNAELKAQIEELKNEKQHLIYMLNLHRPTCIVRAQNGRTPEDERNLFIQQIKEGTLQS
notes: ATF3 as used in the SPR experiment; the ATF3 protein used there is not described; also called ATF3
  Kd: 683 nM
